For test [1], the system named is cumulus cells. Briefly: Staurosporine-induced cumulus cell apoptosis in OOX (TUNEL). It is filed as cell-based, Bovine. As to conditions: for incidence of CC apoptosis: OOX alone, without 41%; for CC apoptosis of treated OOX exposed to staurosporine: 10% BMP-15 or 10 ng/ml BMP-6. How it is done:
CC apoptoic DNA was detected using TUNEl (Roche Diagnostic, Penzberg, Germany) according to the manufacturer's instructions. […] Complexes were then permeabilized in 0.11/u Triton X-100 in 0.1% sodium citrate for 1 hour at room temperature and washed 3 times in PBS/BSA. The complexes were then incubated in fluorescein-conjugated dUTP and terminal deoxynucleotide transferase (TUNEl reagents, Roche) for 1 hour at 37° C. in the dark. Positive controls were incubated in DNAse 1 (0.005 U/µl), which cleaves all DNA, for 20 minutes at room temperature and washed twice in PBS/BSA before TUNEl. Negative controls were incubated in fluorescein-dUTP in the absence of TdT. After TUNEl, complexes were washed twice in PBS/BSA and counterstained with propidium iodide 0.5 μg/ml (PI) plus RNase A (0.1 mg/ml) for 1 hour at room temperature in the dark to label all nuclei. Complexes were then washed twice in PBS/BSA and mounted with slight coverslip compression in VectaShield anti-bleaching solution (Vector labs, Burlingame, Calif.), and stored in the dark at 4° C. for confocal analysis. […] These optical section images were acquired and saved as independent colour channels (green, apoptotic cumulus fluorescence and red, nuclear cumulus fluorescence). The captured images were then processed in Scanalytics IPlab software Version 3.6. (Scanalytics, Fairfax, Va.). Quantification of CC number (for each colour channel) was independently measured using a macro script utilizing an auto segmentation filter for each optical section percentile (3 optical “z”-plane sections for each complex). A percentage of apoptotic nuclei were generated for each slice and the three percentile values were then averaged to achieve a representation of the total apoptotic nuclei percentage for the whole complex. These processes were repeated separately on each individual complex. A preliminary experiment was conducted to determine the apoptotic effect of staurosporine on bovine CC, which induced apoptosis in a dose-dependent manner (range; 0.1-100 μM, data not shown). The aim of this experiment was to determine whether OSF could prevent CC from undergoing apoptosis induced by staurosporine. OOX alone or co-cultured with 35 DO, 10 ng/ml BMP-6 or 10% (v/v) BMP-15, and were then exposed to either 0.1 μM or 1.0 μM staurospourine for the last 6 hours of the 24 hour incubation period. Three replicates of this experiment were carried out using 10 OOX per treatment group per replicate experiment.

For test [2], the system named is cumulus cells. Briefly: Cumulus cell apoptosis in oocytectomized complexes (OOX) and COC, TUNEL with confocal microscopy. The format is cell-based, Bovine. Here is the method: Bovine ovaries were collected from local abattoir and transported to the laboratory in warm saline (30-35° C.). Cumulus-oocyte complexes (COC) were aspirated from antral follicles (2- to 8-mm diameter) using an 18-gauge needle and a 10-ml syringe containing ˜2 ml aspiration media (Hepes-buffered Tissue Cultured Medium-199: TCM-199, ICN Biochemicals, Irvine, Calif., USA) supplemented with 50 μg/ml kanamycin (Sigma-Aldrish, St. louis, Mo.), 4 mg/ml fatty acid-free bovine serum albumin (FAF-BSA) (ICPbio ltd, Auckland, NZ). Intact COC with compact cumulus vestment greater than five cell layers and evenly pigmented cytoplasm were selected under a dissecting microscope and washed twice in Hepes-buffered TCM-199 and once in corresponding culturing media.
The cytoplasm of each oocyte was microsurgically removed from the COC (oocytectomy) using a micromanipulator as described in Buccione et al (Buccione et al. (1990) Dev Biol 138, 16-25.). The resulting oocytectomized complex (OOX) consists of a hollow zona pellucida surrounded by several layers of intact CC.
Denuded oocytes (DO) were generated by removing CC from COC by vortexing for approximately 4 minutes in 2 ml H-TCM-199/BSA. Any remaining CC were removed by repeated passage of the oocytes through a fine-bore fire-polished glass pipette in H-TCM-199/BSA.
CC apoptoic DNA was detected using TUNEl (Roche Diagnostic, Penzberg, Germany) according to the manufacturer's instructions. Briefly, following culture COC and OOX complexes were washed twice in PBS (pH 7.4) containing 1% BSA, fixed in 4% paraformaldehyde in PBS (pH 7.4) overnight at 4° C. and washed twice with PBS/BSA before placing on Cell-Tak-coated coverslips (Beckton Dickinson Biosciences, Franklin lakes, N.J.). Complexes were then permeabilized in 0.11/u Triton X-100 in 0.1% sodium citrate for 1 hour at room temperature and washed 3 times in PBS/BSA. The complexes were then incubated in fluorescein-conjugated dUTP and terminal deoxynucleotide transferase (TUNEl reagents, Roche) for 1 hour at 37° C. in the dark. Positive controls were incubated in DNAse 1 (0.005 U/µl), which cleaves all DNA, for 20 minutes at room temperature and washed twice in PBS/BSA before TUNEl. Negative controls were incubated in fluorescein-dUTP in the absence of TdT. After TUNEl, complexes were washed twice in PBS/BSA and counterstained with propidium iodide 0.5 μg/ml (PI) plus RNase A (0.1 mg/ml) for 1 hour at room temperature in the dark to label all nuclei. Complexes were then washed twice in PBS/BSA and mounted with slight coverslip compression in VectaShield anti-bleaching solution (Vector labs, Burlingame, Calif.), and stored in the dark at 4° C. for confocal analysis.
Apoptosis in COC and OOX was visualised and quantified using confocal microscopy. Dual fluorescence emission from CC was detected using a Nikon C1 Confocal Scanning Head and a Nikon TE2000E microscope (Nikon, Tokyo, Japan). Simultaneous emission capture of the apoptotic signal (fluorescein, lacer excitation 488 nm, emission 510-530 nm) and the nuclear signal (propidium iodide, excitation lacer 532, emission 590-640 nm) was performed.
In order to generate an accurate representation of the overall apoptotic incidence for all complexes, the depth of each complex was measured through a Z series to divide the construct into three percentiles (optical Z plane sections) at 25%, 50% and 75%. These optical section images were acquired and saved as independent colour channels (green, apoptotic cumulus fluorescence and red, nuclear cumulus fluorescence). The captured images were then processed in Scanalytics IPlab software Version 3.6. (Scanalytics, Fairfax, Va.). Quantification of CC number (for each colour channel) was independently measured using a macro script utilizing an auto segmentation filter for each optical section percentile (3 optical “z”-plane sections for each complex).

Test [3] deals with cumulus expansion of oocytectomised (OOX) complexes. The experiment in a line: FSH-induced cumulus expansion score of OOX complexes. The format is cell-based, mice. As to conditions: score 0 (no expansion) to +4 (maximum expansion); mean ±SEM; OOX complexes with FSH. Here is the method: Members of the TGF-β superfamily are prime candidates for the mouse cumulus expansion-enabling factor (CEEF). This study was conducted to examine TGF-β superfamily processes regulating cumulus expansion. COCs were collected from eGG-primed mice and the oocyte microsurgically removed to generate oocytectomised (OOX) complexes. […] The type-I receptors for GDF9 and […] are ALK5 and ALK4, respectively. We tested the ability of an ALK4/5/7 kinase inhibitor to neutralize cumulus expansion.

On to `CN[C@@H]1C[C@H]2O[C@@](C)([C@@H]1OC)n1c3ccccc3c3c4c(c5c6ccccc6n2c5c31)C(=O)NC4` [staurosporine, reference compound], for which the entries for the “incidence of CC apoptosis” value in test [1] (0.1 μM staurosporine for the last 6 h of 24 h) and in test [1] (1.0 μM staurosporine for the last 6 h of 24 h) were 51% and 74%, respectively.

B1: gremlin: BMP antagonist (BMP-2, BMP-4, BMP-7) obtained from R&D systems (protein, UniProt O60565 25-184, looked up)
Gremlin-1: KKKGSQGAIPPPDKAQHNDSEQTQSPQQPGSRNRGRGQGRGTAMPGEEVLESSQEALHVTERKYLKRDWCKTQPLKQTIHEEGCNSRTIINRFCYGQCNSFYIPRHIRKEEGSFQSCSFCKPKKFTTMMVTLNCPELQPPTKKKRVTRVKQCRCISIDLD
In the case of B1, the “antagonism of the inhibitory effect of BMP-7 on CC apoptosis” value in test [2] (OOX + 100 ng/ml BMP-7, 2 μg/ml gremlin, not when BMP-15 was present) is “significantly (P<0.001) reversed”. Moreover, in test [2] (OOX + 10% BMP-15, increasing dose of gremlin (0-40 μg/ml)), the “apoptosis of BMP-15-treated OOXs with antagonist” value is “not significantly increased”.

B2: BMP-6: Recombinant human BMP-6 obtained from R&D systems (protein, UniProt P22004 375-513, looked up)
Bone morphogenetic protein 6: SASSRRRQQSRNRSTQSQDVARVSSASDYNSSELKTACRKHELYVSFQDLGWQDWIIAPKGYAANYCDGECSFPLNAHMNATNHAIVQTLVHLMNPEYVPKPCCAPTKLNAISVLYFDDNSNVILKKYRNMVVRACGCH
B2: the “CC apoptosis of treated OOX exposed to staurosporine” value is 21% in test [1] (0.1 μM staurosporine) and 31% in test [1] (1 μM staurosporine). Further, the “effect on incidence of cumulus cell apoptosis” value in test [2] (OOX cultured with increasing doses (GDF-9 0-175 ng/ml, BMP-6 0-100 ng/ml, BMP-15 0-20% v/v, 5-50 DO), presence or absence of FSH) is listed as “significantly decreased”. For the same molecule, in test [2] (OOX treated with DO, 10 ng/ml BMP-6 and/or 10% v/v BMP-15), the “effect on CC apoptosis, test for additive effect” value was “significantly (P<0.001) decreased”.

B3: activin A: TGF-β superfamily member, ligand of ALK4 (protein, UniProt P08476 311-426, looked up)
Inhibin beta A chain: GLECDGKVNICCKKQFFVSFKDIGWNDWIIAPSGYHANYCEGECPSHIAGTSGSSLSFHSTVINHYRMRGHSPFANLKSCCVPTKLRPMSMLYYDDGQNIIKKDIQNMIVEECGCS
modifications: Inhibin beta A chain
notes: TGF-β superfamily member, ligand of ALK4
Take B3: in test [3], the cumulus expansion score is 2.6±0.1.

These data come from patent US8530235B2, “Medium that supports culture of an oocyte and modulation of granulosa cell apoptosis” (Adelaide Research & Innovation Pty Ltd., priority 2005, dated 2013).
